Test results taken from paper PMC6109231.
Several values for one entry are separate records, joined by “and”; a condition that tells them apart may be missing. Equal values may be shown once.

Target: 20S proteasome core (human (endogenous in HEK293T))
Test: negative-stain EM, single-particle analysis; SEC fraction 4 (1.5 to 2 MDa) of HEK293T lysate, Superdex 200 in PBS pH 7.2 at 4°C; 2% uranyl acetate; raw micrographs, reference-free 2D class averages, 3D classification (RELION) and ab initio reconstruction (cryoSPARC); proteins identified by mass spectrometry of the fraction

## 19S regulatory particle (complex)
  stoichiometry N: 1 and 2
